Measured values published in patent US9618524B2, “Method, composition, isolation and identification of a plaque particle and related biomarker” (Plaxgen Inc., priority 2012, dated 2017).

B1: Cluster of Ig mu chain C region (protein, UniProt P01871 1-474, looked up)
Immunoglobulin heavy constant …: GSASAPTLFPLVSCENSPSDTSSVAVGCLAQDFLPDSITFSWKYKNNSDISSTRGFPSVLRGGKYAATSQVLLPSKDVMQGTDEHVVCKVQHPNGNKEKNVPLPVIAELPPKVSVFVPPRDGFFGNPRKSKLICQATGFSPRQIQVSWLREGKQVGSGVTTDQVQAEAKESGPTTYKVTSTLTIKESDWLGQSMFTCRVDHRGLTFQQNASSMCVPDQDTAIRVFAIPPSFASIFLTKSTKLTCLVTDLTTYDSVTISWTRQNGEAVKTHTNISESHPNATFSAVGEASICEDDWNSGERFTCTVTHTDLPSPLKQTISRPKGVALHRPDVYLLPPAREQLNLRESATITCLVTGFSPADVFVQWMQRGQPLSPEKYVTSAPMPEPQAPGRYFAHSILTVSEEEWNTGETYTCVVAHEALPNRVTERTVDKSTEGEVSADEEGFENLWATASTFIVLFLLSLFYSTTVTLFKVK
B2: Ig mu chain C region (protein)
chain: GSASAPTLFPLVSCENSPSDTSSVAVGCLAQDFLPDSITFSWKYKNNSDISSTRGFPSVLRGGKYAATSQVLLPSKDVMQGTDEHVVCKVQHPNGNKEKNVPLPVIAELPPKVSVFVPPRDGFFGNPRKSKLICQATGFSPRQIQVSWLREGKQVGSGVTTDQVQAEAKESGPTTYKVTSTLTIKESDWLGQSMFTCRVDHRGLTFQQNASSMCVPDQDTAIRVFAIPPSFASIFLTKSTKLTCLVTDLTTYDSVTISWTRQNGEAVKTHTNISESHPNATFSAVGEASICEDDWNSGERFTCTVTHTDLPSPLKQTISRPKGVALHRPDVYLLPPAREQLNLRESATITCLVTGFSPADVFVQWMQRGQPLSPEKYVTSAPMPEPQAPGRYFAHSILTVSEEEWNTGETYTCVVAHEALPNRVTERTVDKSTGKPTLYNVSLVMSDTAGTCY
B3: Inter-alpha-trypsin inhibitor heavy chain H2 (protein)
chain: SLPGESEEMMEEVDQVTLYSYKVQSTITSRMATTMIQSKVVNNSPQPQNVVFDVQIPKGAFISNFSMTVDGKTFRSSIKEKTVGRALYAQARAKGKTAGLVRSSALDMENFRTEVNVLPGAKVQFELHYQEVKWRKLGSYEHRIYLQPGRLAKHLEVDVWVIEPQGLRFLHVPDTFEGHFDGVPVISKGQQKAHVSFKPTVAQQRICPNCRETAVDGELVVLYDVKREEKAGELEVFNGYFVHFFAPDNLDPIPKNILFVIDVSGSMWGVKMKQTVEAMKTILDDLRAEDHFSVIDFNQNIRTWRNDLISATKTQVADAKRYIEKIQPSGGTNINEALLRAIFILNEANNLGLLDPNSVSLIILVSDGDPTVGELKLSKIQKNVKENIQDNISLFSLGMGFDVDYDFLKRLSNENHGIAQRIYGNQDTSSQLKKFYNQVSTPLLRNVQFNYPHTSVTDVTQNNFHNYFGGSEIVVAGKFDPAKLDQIESVITATSANTQLVLETLAQMDDLQDFLSKDKHADPDFTRKLWAYLTINQLLAERSLAPTAAAKRRITRSILQMSLDHHIVTPLTSLVIENEAGDERMLADAPPQDPSCCSGALYYGSKVVPDSTPSWANPSPTPVISMLAQGSQVLESTPPPHVMRVEND
B4: Inter-alpha-trypsin inhibitor heavy chain H4 (protein)
chain: EKNGIDIYSLTVDSRVSSRFAHTVVTSRVVNRANTVQEATFQMELPKKAFITNFSMIIDGMTYPGIIKEKAEAQAQYSAAVAKGKSAGLVKATGRNMEQFQVSVSVAPNAKITFELVYEELLKRRLGVYELLLKVRPQQLVKHLQMDIHIFEPQGISFLETESTFMTNQLVDALTTWQNKTKAHIRFKPTLSQQQKSPEQQETVLDGNLIIRYDVDRAISGGSIQIENGYFVHYFAPEGLTTMPKNVVFVIDKSGSMSGRKIQQTREALIKILDDLSPRDQFNLIVFSTEATQWRPSLVPASAENVNKARSFAAGIQALGGTNINDAMLMAVQLLDSSNQEERLPEGSVSLIILLTDGDPTVGETNPRSIQNNVREAVSGRYSLFCLGFGFDVSYAFLEKLALDNGGLARRIHEDSDSALQLQDFYQEVANPLLTAVTFEYPSNAVEEVTQNNFRLLFKGSEMVVAGKLQDRGPDVLTATVSGKLPTQNITFQTESSVAEQEAEFQSPKYIFHNFMERLWAYLTIQQLLEQTVSASDADQQALRNQALNLSLAYSFVTPLTSMVVTKPDDQEQSQVAEKPMEGESRNRNVHSGSTFFKYYLQGAKIPKPEASFSPRRGWNRQAGAAGSRMNFRPGVLSSRQLGLPGPPDVPDHAAYHPFRRLAILPASAPPATSNPDPAVSRVMNMKIEETTMTTQTPAPIQAPSAILPLPGQSVERLCVDPRHRQGPVNLLSDPEQGVEVTGQYEREKAGFSWIEVTFKNPLVWVHASPEHVVVTRNRRSSAYKWKETLFSVMPGLKMTMDKTGLLLLSDPDKVTIGLLFWDGRGEGLRLLLRDTDRFSSHVGGTLGQFYQEVLWGSPAASDDGRRTLRVQGNDHSATRERRLDYQEGPPGVEISCWSVEL
B5: Isoform 2 of Inter-alpha-trypsin inhibitor heavy chain H4 (protein)
chain: EKNGIDIYSLTVDSRVSSRFAHTVVTSRVVNRANTVQEATFQMELPKKAFITNFSMIIDGMTYPGIIKEKAEAQAQYSAAVAKGKSAGLVKATGRNMEQFQVSVSVAPNAKITFELVYEELLKRRLGVYELLLKVRPQQLVKHLQMDIHIFEPQGISFLETESTFMTNQLVDALTTWQNKTKAHIRFKPTLSQQQKSPEQQETVLDGNLIIRYDVDRAISGGSIQIENGYFVHYFAPEGLTTMPKNVVFVIDKSGSMSGRKIQQTREALIKILDDLSPRDQFNLIVFSTEATQWRPSLVPASAENVNKARSFAAGIQALGGTNINDAMLMAVQLLDSSNQEERLPEGSVSLIILLTDGDPTVGETNPRSIQNNVREAVSGRYSLFCLGFGFDVSYAFLEKLALDNGGLARRIHEDSDSALQLQDFYQEVANPLLTAVTFEYPSNAVEEVTQNNFRLLFKGSEMVVAGKLQDRGPDVLTATVSGKLPTQNITFQTESSVAEQEAEFQSPKYIFHNFMERLWAYLTIQQLLEQTVSASDADQQALRNQALNLSLAYSFVTPLTSMVVTKPDDQEQSQVAEKPMEGESRNRNVHSAGAAGSRMNFRPGVLSSRQLGLPGPPDVPDHAAYHPFRRLAILPASAPPATSNPDPAVSRVMNMKIEETTMTTQTPACPSCSRSRAPAVPAPIQAPSAILPLPGQSVERLCVDPRHRQGPVNLLSDPEQGVEVTGQYEREKAGFSWIEVTFKNPLVWVHASPEHVVVTRNRRSSAYKWKETLFSVMPGLKMTMDKTGLLLLSDPDKVTIGLLFWDGRGEGLRLLLRDTDRFSSHVGGTLGQFYQEVLWGSPAASDDGRRTLRVQGNDHSATRERRLDYQEGPPGVEISCWSVEL

Each molecule was assayed against T1, Abeta-42 plaque particles (Homo sapiens, UniProt P05067) (assay: Mass spectroscopy proteomics, semi-quantitative binding affinity of serum proteins (plaqueproteome, Table 2)). Conditions: higher number = stronger affinity.
T1 construct: Abeta 1-42
Procedure, shortened: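 AD patient serum or plasma (50% in PBS) was incubated with Abeta-42 aggregates (30 μg) for 1 h at 37 °C, then stained with Thioflavin S for 30 min. Labeled particles were FACS-sorted, trypsin/Lys-C digested overnight and analyzed by MS/MS. Sequest searched human UniProt; Scaffold/Protein Prophet validated the identifications.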
B1 was tested, and the “Semi-quantitative analysis of proteins binding to different plaque particles: Abeta-42” value was 5.
For B2, the “Semi-quantitative analysis of proteins binding to different plaque particles: Abeta-42” value was 5.
In the case of B3, the “Semi-quantitative analysis of proteins binding to different plaque particles: Abeta-42” value is reported as 9.
B4 was tested, and the “Semi-quantitative analysis of proteins binding to different plaque particles: Abeta-42” value was 2.
With B5 the “Semi-quantitative analysis of proteins binding to different plaque particles: Abeta-42” value was 2.

The molecules below were run on High Density cholesterol (Chl Large) plaque particles in the same assay as above. Conditions: higher number = stronger affinity.
Design: species or system human
Procedure, shortened: (§1)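 Serum or plasma from atherosclerotic subjects, diluted to 50% in PBS, was incubated with cholesterol aggregates (30 μg per 1 mL reaction) at 37° C for 1 hr. Small and large cholesterol plaque particles were sorted by flow cytometry gating, trypsin-digested and analysed by MS/MS against a human UniProt database.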
For B1, the “Semi-quantitative analysis of proteins binding to different plaque particles: Chl Large” value was 10.
For B2, the “Semi-quantitative analysis of proteins binding to different plaque particles: Chl Large” value was 10.
In the case of B3, the “Semi-quantitative analysis of proteins binding to different plaque particles: Chl Large” value is reported as 10.
B4 was tested, and the “Semi-quantitative analysis of proteins binding to different plaque particles: Chl Large” value was 20.
With B5 the “Semi-quantitative analysis of proteins binding to different plaque particles: Chl Large” value was 20.

What follows are molecules tested on Low density cholesterol (Chl small) plaque particles in the same assay as above. Conditions: higher number = stronger affinity.
Design: species or system human
Procedure, shortened: as §1
B1 was tested, and the “Semi-quantitative analysis of proteins binding to different plaque particles: Chl small” value was 10.
In the case of B2, the “Semi-quantitative analysis of proteins binding to different plaque particles: Chl small” value is reported as 10.
With B3 the “Semi-quantitative analysis of proteins binding to different plaque particles: Chl small” value was 12.
For B4, the “Semi-quantitative analysis of proteins binding to different plaque particles: Chl small” value was 13.
For B5, the “Semi-quantitative analysis of proteins binding to different plaque particles: Chl small” value was 13.

What follows are molecules tested against T2, alpha-synuclein plaque particles (Homo sapiens, UniProt P37840) in the same assay as above. Conditions: higher number = stronger affinity.
T2 construct: 140 amino acids polypeptide
Procedure, shortened: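 AD-subject plasma or serum (800 μL of 50%) mixed with 30 μg preformed alpha-synuclein aggregates for 1 h at 37 °C; Thioflavin S-positive particles isolated by flow sorting. After reduction, acrylamide alkylation and overnight tryptic digestion, serum proteins identified by MS/MS with Sequest and Scaffold.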
For B1, the “Semi-quantitative analysis of proteins binding to different plaque particles: Synuclein” value was 9.
B2 was tested, and the “Semi-quantitative analysis of proteins binding to different plaque particles: Synuclein” value was 8.
For B3, the “Semi-quantitative analysis of proteins binding to different plaque particles: Synuclein” value was 13.
For B4, the “Semi-quantitative analysis of proteins binding to different plaque particles: Synuclein” value was 12.
For B5, the “Semi-quantitative analysis of proteins binding to different plaque particles: Synuclein” value was 12.

What follows are molecules tested on Tau plaque particles in the same assay as above. Conditions: higher number = stronger affinity.
Design: species or system human
Procedure, shortened: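 Serum or plasma proteins captured on Thioflavin S-labelled Tau plaque particles (Tau-74, Tau-275 oligomers preformed in PBS at 37° C for 2 h; 1 h co-incubation at 37° C) were isolated by FACS sorting, then tryptically digested and identified by MS/MS (Sequest, human UniProt, strict trypsin).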
With B1 the “Semi-quantitative analysis of proteins binding to different plaque particles: Tau” value was 11.
For B2, the “Semi-quantitative analysis of proteins binding to different plaque particles: Tau” value was 10.
In the case of B3, the “Semi-quantitative analysis of proteins binding to different plaque particles: Tau” value is reported as 14.
With B4 the “Semi-quantitative analysis of proteins binding to different plaque particles: Tau” value was 15.
In the case of B5, the “Semi-quantitative analysis of proteins binding to different plaque particles: Tau” value is reported as 15.
